Laboratory results taken from paper PMC11998537, “Restriction of influenza A virus replication by host DCAF7-CRL4B axis” (Journal of Virology, 2025).

Tests used:
His-PB1 = target: T1, His-PB1 (influenza A/Puerto Rico/8/1934 (PR8, …, UniProt P03431 1-757)); assay: pull-down; conditions: both partners purified
T1 construct: source: E. coli BL21, purified

His-PB2 = target: T2, His-PB2 (influenza A/Puerto Rico/8/1934 (PR8, …, UniProt P03428 1-759)); assay: pull-down; conditions: both partners purified
T2 construct: source: E. coli BL21, purified

B1: GST-DCAF7 (natural protein, human, UniProt P61962 1-342, looked up)
chain: MSLHGKRKEIYKYEAPWTVYAMNWSVRPDKRFRLALGSFVEEYNNKVQLVGLDEESSEFICRNTFDHPYPTTKLMWIPDTKGVYPDLLATSGDYLRVWRVGETETRLECLLNNNKNSDFCAPLTSFDWNEVDPYLLGTSSIDTTCTIWGLETGQVLGRVNLVSGHVKTQLIAHDKEVYDIAFSRAGGGRDMFASVGADGSVRMFDLRHLEHSTIIYEDPQHHPLLRLCWNKQDPNYLATMAMDGMEVVILDVRVPCTPVARLNNHRACVNGIAWAPHSSCHICTAADDHQALIWDIQQMPRAIEDPILAYTAEGEINNVQWASTQPDWIAICYNNCLEILRV
notes: source: E. coli BL21, purified
Question: Which results are given for B1?
Answer: binding result (His-PB1): binds; binding result (His-PB2): binds
